# According to patent US20180339041A1 (Kyowa Kirin, published 2018):
# Where a chain is given by its changes, count along the chain named. In names and notes the source's numbering stands.
# T1: C-terminally FLAG-tagged human Gas6 recombinant protein (hGas6-F) (human, UniProt Q14393 31-678, gamma-carboxylated glutamic acid residues in the Gla domain (producer cells co-express rat VKOR and human GGCX); positions not given)
# T1 construct: also called human Gas6-F; human Gas6 protein
# T1 sequence: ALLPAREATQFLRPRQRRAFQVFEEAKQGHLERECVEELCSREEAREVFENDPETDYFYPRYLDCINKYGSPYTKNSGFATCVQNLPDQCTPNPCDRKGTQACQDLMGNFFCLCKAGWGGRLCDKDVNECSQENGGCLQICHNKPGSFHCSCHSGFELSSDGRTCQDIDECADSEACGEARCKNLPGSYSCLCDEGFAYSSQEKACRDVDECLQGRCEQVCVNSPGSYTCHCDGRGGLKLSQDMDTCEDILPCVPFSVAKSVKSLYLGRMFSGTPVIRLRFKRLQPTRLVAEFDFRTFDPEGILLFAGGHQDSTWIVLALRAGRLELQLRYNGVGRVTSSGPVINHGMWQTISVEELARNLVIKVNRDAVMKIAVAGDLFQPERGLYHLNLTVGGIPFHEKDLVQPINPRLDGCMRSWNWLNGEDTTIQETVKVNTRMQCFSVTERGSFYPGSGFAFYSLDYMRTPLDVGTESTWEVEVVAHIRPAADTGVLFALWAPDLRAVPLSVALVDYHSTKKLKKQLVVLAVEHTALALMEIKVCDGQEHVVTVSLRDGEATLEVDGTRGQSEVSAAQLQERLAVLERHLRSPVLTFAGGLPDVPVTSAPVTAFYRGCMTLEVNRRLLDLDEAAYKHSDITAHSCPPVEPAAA
# B1: hzKM5320 LV3HV8 antibody (antibody, V domains shown)
# VH: QIQLVQSGPELKKPGASVKISCKASGYTFTNYGMNWVKQAPGQGLKWMGWINTETGEPTYSDDFKGRFVFSLDTSVTTAYLQISSLKAEDTATYFCAREDGYYGTLDYWGQGTTVTVSS
# VL: DVVMTQSPDSLAVSLGERVTINCKASQSVSNDVAWYQQKPGQSPKVLIYYASNRYTGVPDRFSGSGSGTDFTFTISSLQAEDVAVYFCQQDYSSPWTFGQGTKLEIK
# notes: Humanized; variant human IgG4 constant region (EU S228P, L235E, R409K), human kappa; also called A-15
# B2: hzKM5320 LV5HV8 antibody (antibody, V domains shown)
# VH: B1 VH
# VL: B1 VL with V2I, L78V
# notes: Humanized; variant human IgG4 constant region (EU S228P, L235E, R409K), human kappa; also called A-16
# B3: hzKM5320 LV5HV0 antibody (antibody, V domains shown)
# VH: B1 VH with I2V, P9S, I20V, K38R, K46E, T77S, T93V, F95Y
# VL: B1 VL with V2I, L78V
# notes: Humanized; variant human IgG4 constant region (EU S228P, L235E, R409K), human kappa; also called A-08
# B4: hzKM5320 LV6HV8 antibody (antibody, V domains shown)
# VH: B1 VH
# VL: B1 VL with V2I, L15A, L78V
# notes: Humanized; variant human IgG4 constant region (EU S228P, L235E, R409K), human kappa; also called A-17
# B5: hzKM5321 LV6HV1 antibody (antibody, V domains shown)
# VH: QVHLVQSGSELKKPGASVKISCKASGYTFTNYGMNWVRQAPGQGLKWMGWINTNTGEPTYTEEFKGRFVFSLDTSVTTSYLQISTLKAEDTAVYFCARDEGWFVYWGQGTLVTVSS
# VL: ETTLTQSPSSLSVSTGDRVTITCITSTDIDDDMNWYQQKPGKPPKLLISEGNTLRPGVPSRFSSSGSGTDFTLTISSTQPEDFADYYCLQTDSVPLTFGQGTKVEIK
# notes: Humanized; variant human IgG4 constant region (EU S228P, L235E, R409K), human kappa; also called B-22; LV6HV1
# B6: hzKM5321 LV1aHV0 antibody (antibody, V domains shown)
# VH: B5 VH with K46E
# VL: B5 VL with V13A, T15V, S64G, T78L, D85T
# notes: Humanized; variant human IgG4 constant region (EU S228P, L235E, R409K), human kappa; also called B-03; LV1aHV0
# B7: hzKM5321 LV3HV7 antibody (antibody, V domains shown)
# VH: B5 VH with V2I, S9P, R38K, S79A, V93T, V112I
# VL: B5 VL with V13A, P43A, S64G
# notes: Humanized; variant human IgG4 constant region (EU S228P, L235E, R409K), human kappa; also called B-16; LV3HV7
# B8: hzKM5321 LV1cHV0 antibody (antibody, V domains shown)
# VH: B5 VH with K46E
# VL: B5 VL with T15V, P43A, S64G, T78L, D85T
# notes: Humanized; variant human IgG4 constant region (EU S228P, L235E, R409K), human kappa; also called B-05; LV1cHV0
# B9: hzKM5321 LV4HV7 antibody (antibody, V domains shown)
# VH: B5 VH with V2I, S9P, R38K, S79A, V93T, V112I
# VL: B5 VL with P43A, S64G, L73F, D85T
# notes: Humanized; variant human IgG4 constant region (EU S228P, L235E, R409K), human kappa; also called B-17; LV4HV7
# B10: hzKM5321 LV1bHV7 antibody (antibody, V domains shown)
# VH: B5 VH with V2I, S9P, R38K, S79A, V93T, V112I
# VL: B5 VL with V13A, T15V, P43A, S64G, T78L
# notes: Humanized; variant human IgG4 constant region (EU S228P, L235E, R409K), human kappa; also called B-14; LV1bHV7
# B11: hzKM5321 LV1cHV7 antibody (antibody, V domains shown)
# VH: B5 VH with V2I, S9P, R38K, S79A, V93T, V112I
# VL: B5 VL with T15V, P43A, S64G, T78L, D85T
# notes: Humanized; variant human IgG4 constant region (EU S228P, L235E, R409K), human kappa; also called B-15; LV1cHV7
# B12: hzKM5321 LV1aHV7 antibody (antibody, V domains shown)
# VH: B5 VH with V2I, S9P, R38K, S79A, V93T, V112I
# VL: B5 VL with V13A, T15V, S64G, T78L, D85T
# notes: Humanized; variant human IgG4 constant region (EU S228P, L235E, R409K), human kappa; also called B-13; LV1aHV7
# B13: hzKM5321 LV0HV7 antibody (antibody, V domains shown)
# VH: B5 VH with V2I, S9P, R38K, S79A, V93T, V112I
# VL: B5 VL with V13A, T15V, P43A, S64G, T78L, D85T
# notes: Humanized; variant human IgG4 constant region (EU S228P, L235E, R409K), human kappa; also called B-12; LV0HV7
# B14: hzKM5321 LV4HV0 antibody (antibody, V domains shown)
# VH: B5 VH with K46E
# VL: B5 VL with P43A, S64G, L73F, D85T
# notes: Humanized; variant human IgG4 constant region (EU S228P, L235E, R409K), human kappa; also called B-07; LV4HV0
# B15: hzKM5321 LV1bHV0 antibody (antibody, V domains shown)
# VH: B5 VH with K46E
# VL: B5 VL with V13A, T15V, P43A, S64G, T78L
# notes: Humanized; variant human IgG4 constant region (EU S228P, L235E, R409K), human kappa; also called B-04; LV1bHV0
# B16: hzKM5321 LV3HV0 antibody (antibody, V domains shown)
# VH: B5 VH with K46E
# VL: B5 VL with V13A, P43A, S64G
# notes: Humanized; variant human IgG4 constant region (EU S228P, L235E, R409K), human kappa; also called B-06; LV3HV0
# Target: T1, C-terminally FLAG-tagged human Gas6 …
# Experiment: SPR Biacore T100, captured antibody, Gas6 analyte, first test
# Procedure: An anti-human IgG antibody was immobilized on a CM5 sensor chip (manufactured by GE Healthcare Japan Corp.) using Human Antibody Capture Kit (manufactured by GE Healthcare Japan Corp.) according to the attached manual. Each test antibody adjusted to 1 μg/mL was added for 10 seconds at a flow rate of 10 μL/min to flow cells. […] The measurement was performed by the […] method. The obtained sensorgram was analyzed using Bia Evaluation Software (manufactured by GE Healthcare Japan Corp.), and the kinetic constant of each antibody was calculated.
Kd [nM],koff [s⁻¹],kon [M⁻¹ s⁻¹],Binder
< 2.3,0.000174,> 75600,B1
< 2.11,0.000155,> 73600,B2
< 2.85,0.00019,> 66700,B3
< 2.18,0.000158,> 72500,B4
< 2.35,0.000239,> 102000,B5
< 3.92,0.000492,> 126000,B6
< 7.03,0.000712,> 101000,B7
< 4.05,0.000511,> 126000,B8
< 8.59,0.000859,> 100000,B9
< 7.49,0.000751,> 100000,B10
< 7.45,0.00075,> 101000,B11
< 6.83,0.000684,> 100000,B12
< 6.74,0.000672,> 100000,B13
< 4.38,0.000551,> 126000,B14
< 4.26,0.000543,> 127000,B15
< 1.86,0.000285,> 153000,B16
